Substitutions are numbered along the chain they refer to.
Legend:
[1] = target: T1, recombinant human IL18-BP (Homo sapiens, UniProt O95998); experiment: MEL624:TIL assay; type: cell-based; conditions: rhIL-18 30 ng/ml + rhIL-18BP 1 μg/ml, vs isotype control
T1 construct: purchased R&D systems 119-BP
T1 sequence (O95998 31-194): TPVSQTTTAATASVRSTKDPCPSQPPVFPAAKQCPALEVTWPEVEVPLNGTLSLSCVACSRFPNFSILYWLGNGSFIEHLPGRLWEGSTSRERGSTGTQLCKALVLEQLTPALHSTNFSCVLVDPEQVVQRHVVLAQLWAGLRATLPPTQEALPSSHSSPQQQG
Procedure: Human MEL624 cells were thawed and grown in DMEM with 10% FBS, 1% Glutamax, 1% Penicillin-Streptomycin Solution and 1% HEPES buffer. The cells were then seeded at 75 k cells/well in a 96 well plate in the assay medium (IMDM with 10% human serum, 1% Glutamax, 1% MEM eagle, 1% Sodium Pyruvate and 1% Penicillin-Streptomycin Solution) and incubated 1 hour in 37° C., 5% CO2 incubator before co-culture with human tumor infiltrating lymphocytes that were previously expanded using known melanoma antigens (TILs). Human TILs were thawed in full TIL media and 75 k cells/well were co-cultured with the MEL624 cells to create an effector: target ratio of 1:1. The co-cultured cells were then treated with rhIL-18 (30 ng/ml) and rhIL-18BP (1 μg/ml) for 30 min in 37° C., 5% CO2 incubator to allow IL-18:IL-18BP complex formation. After 30 minutes, anti-human IL-18BP mAb (ADI-71722, dose titration, 30 μg/ml-0.01 μg/ml, dilution factor of 1:3) or relevant isotype control (hIgG1 30 μg/ml) were added to the co-culture to examine its capability to restore IL-18 activity. Cells and all added solutions were prepared in full assay medium to a final volume of 200 μl/well. Plates were incubated for 24 hours in 37° C., 5% CO2 incubator, after which the supernatant was collected for cytokine secretion evaluation. All tests were done in triplicates and each repeated with TIL four donors. […]

[2] = target: T1, recombinant human IL18-BP; experiment: CMV recall assay; type: cell-based
Procedure: Human MEL-624 overexpressing PD-L1 cells were thawed and loaded with CMV pp65 peptide (0.03 μg/ml). The cells were seeded at 100K/well in a 96 well plate and incubated for 30 minutes in 37° C., 5% C02 incubator with a combination rhIL-18 (30 ng/ml, R&D systems, 9124-IL/CF) and rhIL-18BP-Fc chimeric protein (2 μg/ml, R&D systems 119-BP) to allow IL-18+IL-18BP complex formation. After 30 minutes, anti-human IL-18BP (ADI-71722), anti-human PVRIG, anti-human TIGIT (anti-TIGIT), anti-human PD1 (Pembrolizumab) or relevant isotype control (hIgG4) were added to the culture to examine their capability to restore IL-18 activity. All antibodies were added to a final concentration of 10 μg/ml. 30 minutes post incubation with antibodies, thawed CMV-reactive T-cells were added to the culture. Cells and all added solutions were prepared in full IMDM (IMDM media with 10% human serum, 1% Glutamax, 1% MEM eagle, 1% sodium pyruvate, and 1% Penicillin-Streptomycin Solution) to a final volume of 200 μl/well. Plates were incubated for 24 hours in 37° C., 5% C02 incubator, after which the supernatant was collected for IFNγ secretion evaluation. All tests were done in triplicates and each repeated with three donors.
MEL624 cells that overexpress PD-L1 were loaded with CMV peptide pp65. […] CMV-specific T-cells were then added to the culture and IFNg secretion was measured after an overnight incubation.

[3] = target: T2, human IL18BP-Fc binding to human IL-18 (Homo sapiens, UniProt O95998); experiment: Blocking of hIL18BP-hIL-18 interaction by ELISA, IL18BP plate bound; conditions: 1 ng/ml human IL-18, compared with clone W19089C
T2 sequence (O95998 31-194): T1 sequence (O95998 31-194)
Procedure: This assay was utilized to identify anti-human IL18BP Abs that inhibit the binding interaction between human IL18BP- and its counterpart, human IL-18. […] Human IL18BP-Fc protein was coated on the wells of a high binding plate overnight at 4° C. (1 μg/ml, 100 μl/well volume). Plates were washed three times with PBS-T buffer (1×PBS pH 7.4, 0.05% Tween20) incubated with 250 μL blocking buffer (2.5% skim milk in PBS) at room temperature (RT) for 2 hr. Blocking buffer was removed and plates were washed three times with PBS-T buffer. Plate-bound ligands were incubated with anti-human IL18BP Abs in 1% BSA in PBS buffer two times serially diluted (2.5-0.019 μg/ml, 100 μL/well volume) at RT for 1 h. Plates were washed one time with PBS. Plate-bound ligands were incubated with human IL-18 (cat. 9124-IL, R&D) in 1% BSA in PBS buffer (1 ng/ml, 100 μL/well volume) at RT for 1 h. Plates were washed three times with PBS-T (0.05% Tween20 in PBS). Biotinylated anti-IL18 detection antibody, cat. D045-6, R&D 1:1000 in 1% BSA in PBS buffer was added (100 μL/well). This was incubated at RT for 1 hr, and plates were washed again. Peroxidase Streptavidin, Jackson, cat. 016-030-084 1:1000 in 2.5% skim milk in PBS was added (100 μL/well) for 1 hr at RT. […] The HRP reaction was stopped by adding 50 μL 1N HCl and absorbance signals at 450 nm were read on a luminescence Reader-EnSpire (Perkin Elmar). […]

SEC-HPLC % monomer = type: physicochemical; conditions: optimized antibodies
Procedure: A TSKgel SuperSW mAb HTP column (22855) was used for fast SEC analysis of mammalian produced mAbs at 0.4 mL/min with a cycle time of 6 min/run. 200 mM Sodium Phosphate and 250 mM Sodium Chloride was used as the mobile phase.

[4] = Fab Tm by dynamic scanning fluorimetry (DSF); type: physicochemical; conditions: optimized antibodies
Procedure: 10 μL of 20× Sypro Orange is added to 20 μL of 0.2-1 mg/mL mAb or Fab solution. A RT-PCR instrument (BioRad CFX96 RT PCR) is used to ramp the sample plate temperature from 40 to 95° C. at 0.5° C. increment, with 2 min equilibrate at each temperature. The negative of first derivative for the raw data is used to extract Tm.

[5] = target: T3, human IL-18-BP : human IL-18 complex (Homo sapiens, UniProt O95998); experiment: Competition ELISA with complex of soluble IL18-IL18BP; type: binding; conditions: ADI-66716 vs MAB1191
T3 construct: purchased R&D systems 119-BP
T3 sequence (O95998 31-194): T1 sequence (O95998 31-194)
Procedure: This assay was utilized to identify anti-human IL18BP Abs that inhibit the binding interaction between human IL18BP- and its counterpart, human IL-18. Commercial Ab anti human IL18BP (Clone 136007, cat. MAB1191, R&D systems) and ADI-66716 were tested for inhibition of human IL18BP protein binding to IL-18 by ELISA. Human IL18BP antibody (cat.AF 119, R&D) was coated on the wells of a high binding plate overnight at 4° C. (1 ug/ml, 100 μl/well volume). Plates were washed three times with PBS-T buffer (1×PBS pH 7.4, 0.05% Tween20) incubated with 250 μL blocking buffer (2.5% skim milk in PBS) at room temperature (RT) for 2 hr. Blocking buffer was removed and plates were washed three times with PBS-T buffer. Complex pre-formed 1 hour at 37° C. with 0.25 nM human IL-18-BP (R&D, cat. 119BP) and 3 nM Human IL-18 Biotin (9124-IL, R&D) in 1% BSA in PBS buffer. Complex was incubated for 2 hrs at RT together with anti-human IL18BP Abs (in 1% BSA in PBS buffer two times serially diluted. 4-0.06 μg/ml, 100 μL/well volume). Peroxidase Streptavidin, Jackson, cat. 016-030-084 1:1000 in 2.5% skim milk in PBS was added (100 μL/well) for 1 hr at RT. Plates were washed three times with PBS-T buffer (1×PBS pH 7.4, 0.05% Tween20). […] The HRP reaction was stopped by adding 50 μL 1N HCl and absorbance signals at 450 nm were read on a luminescence Reader-EnSpire (Perkin Elmar). […]

[6] = tested on: B16/Db-hmgp100 melanoma model; experiment: B16/Db-hmgp100 syngeneic tumor model; conditions: 10 mg/kg from day 4
Procedure: B16/Db-hmgp100 cells were kindly provided by Dr. Hanada et al. (HHS agency) and were licensed from NIH. B16/Db-hmgp100 cells were generated by double transduction of B16F10 with H-2Db and a retrovirus that encodes chimeric mouse gp100 that is comprised of the human gp10025-33 and the rest of mouse gp100. Cells were cultured in RPMI 1640 (Biological Industries, 01-100-1A) with 10% FBS (Biological Industries, 04-127-1A), and 100 g/mL penicillin/streptomycin (Biological Industries, 03-031-1B), 1% Glutamax (Life technologies, 35050-038), 1% Sodium pyruvate (Biological Industries, 03-042-1B), 0.01% 2-mercaptoethanol (Life technologies, 31350-010), 10 μg/ml Blasticidin (InvivoGen, ant-bl-05). 1×10^5 B16/Db-hmgp100 cells subcutaneously into the back right flank of mice.
In both CT26 and B16/Db-hmgp100 models mAb administration started at day 4 (mono treatment) or day 7 post tumor inoculation when tumors were at volume of 30-50 mm^3 (combo treatment); and was given intra-peritoneal (i.p.) in a final volume/injection of 200 μl, for 3 wks for a total of 6 administrations. Tumor growth was measured with electronic caliper every 2-3 days and was reported as 0.5×W^2×L mm^3. […]
At day 4 post tumor inoculation mice were treated with mAbs (as detailed below) injected on day 4, 7, 11, 14, 18 and 21 post inoculation. Tumor growth was measured with caliper every 2-3 days. […]

whole blood = experiment: Whole blood loop assay (ID.Flow); type: cell-based, human; conditions: blood of six healthy volunteers, 24 hr
Procedure: Flow, an ex vivo system that mimics the human blood circulation. Fresh whole blood was taken from six healthy volunteers and immediately transferred to a whole blood loop system. The test items were administered, and the blood was set to circulate at 37° C. to prevent clotting. Blood samples collected at the 24 hr time point were analyzed for hematology and flow cytometry parameters and then processed to plasma for cytokine analysis. The anti-CD52 antibody Alemtuzumab was included as a reference antibody with manageable cytokine release in the clinic.

B1: ADI-71722: anti-IL18-BP antibody, sequences in FIG. 2D; 66670 lineage (antibody, V domains shown)
VH: QVQLVQSGAEVKKPGSSVKVSCKASGGTFSEYPISWVRQAPGQGLEWMGGIIPGAGTAIYAQKFQGRVTITADESTSTAYMELSSLRSEDTAVYYCARGRHFHETWGQGTLVTVSS
VL: DIQMTQSPSSVSASVGDRVTITCRASQGISSWLAWYQQKPGKAPKLLIYAASSLQSGVPSRFSGSGSGTDFTLTISSLQPEDFATYYCQQVYRFPWTFGGGTKVEIK
IFNγ secretion from TILs [1]: fully restore IL-18 activity | IFNγ secretion by CMV-reactive T-cells, as mono ([2]; 10 μg/ml, rhIL-18 30 ng/ml + rhIL-18BP 2 μg/ml): fully restore IFNγ secretion | IFNγ secretion by CMV-reactive T-cells, in combination ([2]; combined with Pembrolizumab, anti-PVRIG or anti-TIGIT, each 10 μg/ml, vs mono): in a more potent manner | Blocking effect on binding of human IL18BP to human IL-18 [3]: superior to Biolegend Ab | SEC-HPLC, % monomer (SEC-HPLC % monomer): 95.9% | Fab Tm (DSF, ° C.) [4]: 73.0 °C

B2: ADI-66716: anti-IL18-BP antibody, sequences in FIG. 2N; parental (antibody, V domains shown)
VH: QLQLQESGPGLVKPSETLSLTCTVSGGSISSSDYYWGWIRQPPGKGLEWIGSIYYSGSTYYNPSLKSRVTISVDTSKNQFSLKLSSVTAADTAVYYCARGPHRQVFDYWGQGTLVTVSS
VL: B1 VL with V91G, Y92S, R93S, W96Y
Blocking of IL18-IL18BP complex formation [5]: superior blocking effect to R&D antibody

B3: anti-PVRIG: Anti PVRIG mAb 407 mAb mouse IgG1, BOJ-5G4-F4 (antibody, V domains shown)
VH: QVQLQQSGAELAKPGSSVMISCKASGYTFTNYAVHWIKQTTGQALEWTGYIAPGSGVTKYNEKFKGKATLTVDKSSTTAYMQLSSLTPVDTAVYYCASGTTRFAYWGQGTLVTVSS
VL: DIVLTQSPALAVSLGQRATISCRASQSVSLSSYNLMQWYQQKPGQEPKILIYDASNLPSGIPARFSGSGSGTDFTLTIDPVQADDIATYYCQQSKDDPLTFGSGTKLEIK
Tumor growth, anti-PVRIG monotherapy [6]: comparable tumor growth to mice treated with isotype control mAbs

B4: ADI-71709: anti-IL18-BP antibody, sequences in FIG. 2A; 66650 lineage (antibody, V domains shown)
VH: QVQLVQSGAEVKKPGASVKVSCEASGYTFDIYAVHWVRQAPGQRLEWMGWIHAGTGATKYSQKFQGRVTITRDTSASTAYMELSSLRSEDTAVYYCARGLGEVGPTGTSWFDPWGQGTLVTVSS
VL: DIQMTQSPSTLSASVGDRVTITCRASQSISSWLAWYQQKPGKAPKLLIYEASSLESGVPLRFSGSGSGTEFTLTISSLQPDDFATYYCQQYRQSPFTFGGGTKVEIK
SEC-HPLC, % monomer (SEC-HPLC % monomer): 97.6% | Fab Tm (DSF, ° C.) [4]: 71.5 °C | Signs of systemic immune activation, in combination with Nivolumab (whole blood): did not show signs of systemic immune activation | Signs of systemic immune activation, as mono (whole blood; hematology, flow cytometry, cytokines): did not show signs of systemic immune activation
